Experiment in all cases: fluorescence polarisation; 37 °C, after the 25 °C reading ramped over 7 min to 37 °C and 2 min incubation; unlabeled Rb^P against 1.5 nM TMR-E2F1^TD or 7.5 nM TMR-E7^LxCxE; 25 mM Tris pH 8.0, 200 mM NaCl, 1 mM DTT, 0.1% Tween-20; apparent Kd
Holding throughout (settings): both partners purified
Background: In fluorescence polarisation assays a small probe gives low polarisation when free and higher when bound to something large.

One experiment addresses T1, Rb^P K530I (human, UniProt P06400 380-788, K530I).
T1 construct: also called variant 21
T1 sequence (looked up): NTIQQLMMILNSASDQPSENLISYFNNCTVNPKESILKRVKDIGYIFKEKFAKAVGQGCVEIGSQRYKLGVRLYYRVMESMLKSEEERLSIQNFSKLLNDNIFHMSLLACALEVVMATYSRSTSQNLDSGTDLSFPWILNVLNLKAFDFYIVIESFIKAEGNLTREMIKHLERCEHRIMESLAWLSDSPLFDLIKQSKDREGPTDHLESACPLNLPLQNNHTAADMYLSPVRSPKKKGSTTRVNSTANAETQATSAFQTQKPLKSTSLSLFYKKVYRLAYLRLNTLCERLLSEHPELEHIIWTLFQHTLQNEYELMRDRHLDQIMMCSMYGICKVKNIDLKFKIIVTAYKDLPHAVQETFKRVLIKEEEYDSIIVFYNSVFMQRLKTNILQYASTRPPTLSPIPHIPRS

Another experiment deals with T2, Rb^P Q444L (human, UniProt P06400 380-788, Q444L).
T2 construct: also called variant 3
T2 sequence (looked up): T1 sequence (looked up) with Q65L, I151K

In the next experiment the target is T3, Rb^P E693A (human, UniProt P06400 380-788, E693A).
T3 construct: also called variant 60
T3 sequence (looked up): T1 sequence (looked up) with I151K, E314A

For the next experiment, the target named is T4, Rb^P S751Y (human, UniProt P06400 380-788, S751Y).
T4 construct: also called variant 72
T4 sequence (looked up): T1 sequence (looked up) with I151K, S372Y

In another experiment the target is T5, Rb^P R451S (human, UniProt P06400 380-788, R451S).
T5 construct: also called variant 7
T5 sequence (looked up): T1 sequence (looked up) with R72S, I151K

Among the data in article PMC11931385, “Structural and functional analysis of cancer-associated missense variants in the retinoblastoma protein pocket domain” (The Journal of Biological Chemistry, 2025) are Kd values, retold here.

Positions count from the first letter of the chain named. Names may count otherwise. No end group written: not given here. TMR = tetramethyl rhodamine dye

B1: TMR-E2F1^TD, peptide of the E2F1 transactivation domain (peptide)
peptide: {TMR}-GEGIRDLFDCDFGDLTPLD
notes: also called E2F^TD; source: synthetic peptide, bought: GenScript
For B1, the Kd turned out to be 1680 nM in the experiment with Rb^P K530I; 30 nM with Rb^P Q444L; 59 nM with Rb^P E693A; 127 nM with Rb^P S751Y; 44 nM in the experiment with Rb^P R451S.

B2: TMR-E7^LxCxE, LxCxE peptide of the E7 oncoprotein from HPV (peptide)
peptide: DLYCYEQLN
modifications: also: TMR label, position not given here
notes: source: synthetic peptide, bought: GenScript
In the case of B2, the Kd with Rb^P K530I worked out at 20 nM; with Rb^P Q444L, 11 nM; with Rb^P E693A, 24 nM; with Rb^P S751Y, 420 nM; in the experiment with Rb^P R451S, 17 nM.
